Columns and labels:
Myostatin [1] = target: Myostatin (UniProt O14793); assay: SPR (Biacore T100), myostatin injected, Langmuir 1:1 model
Myostatin [2] = target: Myostatin (UniProt O14793); assay: SPR (Biacore T100): Fc fusion captured by anti-human antibody on a CM4 chip, myostatin injected as analyte, Langmuir 1:1 model
Myostatin [3] = target: Myostatin (UniProt O14793); assay: cell-based or functional assay

Sequence of Myostatin (O14793 267-375 limits assumed): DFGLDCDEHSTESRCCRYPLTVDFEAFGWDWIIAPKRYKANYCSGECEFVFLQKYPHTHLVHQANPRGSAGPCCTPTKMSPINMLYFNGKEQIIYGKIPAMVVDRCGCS
Sequence of Activin Receptor 2B-FC (Fc fusion) (Q13705 19-137): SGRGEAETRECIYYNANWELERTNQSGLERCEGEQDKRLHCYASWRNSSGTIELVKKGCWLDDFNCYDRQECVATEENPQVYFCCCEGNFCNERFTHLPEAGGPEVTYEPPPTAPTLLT

| Kd (Myostatin [1]) [nM] | koff (Myostatin [2]) [s⁻¹] | kon (Myostatin [2]) [M⁻¹ s⁻¹] | IC50 of inhibition of myostatin dependent SMAD2/3 activation (luciferase reporter, HEK293, 0.1 nM myostatin) (Myostatin [3]) [nM] | Substance |
| --- | --- | --- | --- | --- |
| 2.5 | 0.00098 | 390000 | – | Activin Receptor 2B-FC (Fc fusion) |
| – | – | – | 0.17 | hNOPE (1-620) ECD-FC (Fc fusion) |

— patent US20190125833A1
